Laboratory results: paper PMC8922107

Target: Flag-PKM2 from the nuclear fraction of U87 cells (UniProt P14618)
Experiment: SEC; Flag-PKM2 eluted with flag peptide in TBS (25 mM Tris, 150 mM NaCl, pH 7.2); Superdex 200 increase 10/300 GL, 4 °C, 0.5 mL/min; fractions analysed by western blot

Chain of Flag-PKM2 from the nuclear fraction of U87 cells, P14618 1-531 (enzyme; other documents disagree on this pair) (P14618 whole entry): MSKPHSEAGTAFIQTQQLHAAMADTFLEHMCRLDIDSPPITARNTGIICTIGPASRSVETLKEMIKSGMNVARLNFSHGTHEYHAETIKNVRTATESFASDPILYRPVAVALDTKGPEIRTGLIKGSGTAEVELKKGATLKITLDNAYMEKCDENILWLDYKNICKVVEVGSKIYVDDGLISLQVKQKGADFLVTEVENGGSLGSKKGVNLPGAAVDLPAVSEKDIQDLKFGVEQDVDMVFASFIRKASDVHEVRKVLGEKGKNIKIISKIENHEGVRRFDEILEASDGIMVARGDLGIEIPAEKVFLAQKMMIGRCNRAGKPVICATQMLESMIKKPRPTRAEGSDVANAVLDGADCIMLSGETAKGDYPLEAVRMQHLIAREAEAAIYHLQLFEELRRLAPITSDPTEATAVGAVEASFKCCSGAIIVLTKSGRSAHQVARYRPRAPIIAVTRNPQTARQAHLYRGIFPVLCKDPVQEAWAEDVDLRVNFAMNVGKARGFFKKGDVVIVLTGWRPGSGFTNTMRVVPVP

- stoichiometry N: 2
Substance: Flag-PKM2 from the nuclear fraction of U87 cells, P14618 1-531 (enzyme; other documents disagree on this pair)
